Measurements taken from patent US20240254229A1 (Molecular Partners, published 2024).

Assays:
[1] = target: T1, hCD33 and hCD123 immobilized simultaneously on one switchSENSE chip (ratio 2:1, CD33:CD123) (human, UniProt P20138 18-259; P26951 19-305, limits assumed); experiment: switchSENSE, hCD33 and hCD123 co-immobilised 2:1; panel headed CD33, column KD2 (avidity, simultaneous binding of CD33 and CD123 per paragraph 696)
T1 construct: Not a complex: two separate ligands on one surface; used for avidity values and for off-rates; also called both ligands; both targets attached to the surface of the chip
T1 sequence (P20138 18-259 limits assumed, one chain of several): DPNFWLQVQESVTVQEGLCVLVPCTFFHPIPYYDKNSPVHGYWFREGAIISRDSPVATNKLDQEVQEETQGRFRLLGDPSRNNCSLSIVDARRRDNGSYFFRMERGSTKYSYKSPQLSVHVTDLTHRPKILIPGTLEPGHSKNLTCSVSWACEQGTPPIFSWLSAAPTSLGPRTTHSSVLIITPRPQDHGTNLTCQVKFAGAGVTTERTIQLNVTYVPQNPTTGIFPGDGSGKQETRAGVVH
Experimental: (§1) The designed ankyrin repeat proteins: DARPin® protein #20, DARPin® protein #21, DARPin® protein #22, DARPin® protein #27, DARPin® protein #40 and DARPin® protein #41 were tested in a concentration of 0.16 and 64 nM (in a buffer PE140 containing 10 mM Na2HPO4/NaH2PO4, 140 mM NaCl, 0.05% Tween20, 50 μM EDTA, 50 μM EGTA) for binding against two ligands hCD33 and hCD123, which both were immobilized simultaneously to DNA nanolevers, on the surface, at a pre-defined ratio (2:1, CD33:CD123) and 10% density (100:50) on an ADP-48-1-0 chip, where 100% density 1000 receptors/μm2 (preincubated R1-B48-CD123 and G1-A48-CD33 (100 nM) diluted in cNL-48 (dark)). Briefly the following steps were performed: [0724] Conjugation. Amine coupling of the two ligands (CD33 and CD123) to the DNA nanolever (A48, B48, respectively) and purification of the conjugates using the proFIRE® solution (Dynamic Biosensors GmbH) at 25° C. [0725] Evaluation of all the combined affinity and avidity of all different proteins to both ligands attached on the surface of an ADP chip using a DRX+ instrument (dynamic BIOSENSORS). [0726] Statistical analysis (repeatability from 2 to 5 times) including regeneration of the chip surface every concentration analyzed and long dissociation times and data were fitted using a bi-exponential global fit.

[2] = target: T1, hCD33 and hCD123 immobilized …; experiment: switchSENSE; KD,2 against KD,1
Experimental: as §1

[3] = target: T2, hCD123 (recombinant, construct not stated) (human, UniProt P26951 19-305, limits assumed); experiment: switchSENSE, CD33 and CD123 on one chip; kon to CD123
T2 construct: also called CD123 (Ligand 2)
T2 sequence (looked up): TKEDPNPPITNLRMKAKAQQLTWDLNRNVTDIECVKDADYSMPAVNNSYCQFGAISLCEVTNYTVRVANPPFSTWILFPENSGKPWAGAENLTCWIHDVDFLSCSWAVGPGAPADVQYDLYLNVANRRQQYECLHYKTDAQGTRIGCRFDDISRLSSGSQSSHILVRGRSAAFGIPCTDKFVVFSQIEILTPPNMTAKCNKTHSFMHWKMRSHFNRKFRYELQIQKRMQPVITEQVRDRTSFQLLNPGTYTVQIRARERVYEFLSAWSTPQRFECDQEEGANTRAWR
Experimental: as §1

[4] = target: T2, hCD123 (recombinant, construct not …); experiment: switchSENSE; KD,1 (affinity)
Experimental: as §1

[5] = target: T3, hCD33 (recombinant, construct not stated) (human, UniProt P20138 18-259, limits assumed); experiment: switchSENSE; KD,1 (affinity)
T3 construct: also called CD33 (Ligand 1)
T3 sequence (P20138 18-259 limits assumed): as the sequence (P20138 18-259 limits assumed, one chain of several) above
Experimental: as §1

[6] = target: T1, hCD33 and hCD123 immobilized …; experiment: switchSENSE, CD33 and CD123 on one chip; slow phase (avidity); slow phase (avidity)
[7] = target: T3, hCD33 (recombinant, construct not …); experiment: switchSENSE, CD33 and CD123 on one chip; kon to CD33
Experimental: as §1

[8] = target: T3, hCD33 (recombinant, construct not …); experiment: switchSENSE, hCD33 and hCD123 co-immobilised 2:1; panel headed CD33, column KD1 (affinity)
[9] = target: T1, hCD33 and hCD123 immobilized …; experiment: switchSENSE; KD,2 (avidity, simultaneous binding of CD33 and CD123)
Experimental: as §1

B1: DARPin® protein #27 (designed binder)
chain: DLGKKLLEAALEGQLDEVRELLKAGADVNAKDQEGYTPLHLAAALGHLEIVEVLLKAGADVNAKDSIGRTPLHLAAYKGHLEIVEVLLKAGADVNAQDLLGETPADLAAEQGHQDIAEVLQKAAGSPTPTPTTPTPTPTTPTPTPTGSDLGVKLLLAASRGQLDEVRILLKAGADVNAKDIDEGYTPLHIAAYYGHLEIVEVLLKAGADVNAKDRYGKTPLHLAAISGHLEIVEVLLKAGADVNAQDDKGDTPADLAADYGHQDIAEVLQKAAGSPTPTPTTPTPTPTTPTPTPTGSDLGQKLLEAAWAGQDDEVRELLKAGADVNAKNSRGWTPLHTAAQTGHLEIFEVLLKAGADVNAKDDKGVTPLHLAAALGHLEIVEVLLKAGADVNAQDSWGTTPADLAAKYGHEDIAEVLQKAA
notes: CD123-CD33-CD3; also called αCD123-aCD33-αCD3_1; not shown: N-terminal His-tag
- Kd [1]: 0.17 nM
- fold lower KD,2 (avidity) than the measured affinity [2]: ≥ 14 fold
- kon [3]: ~1e+07 M⁻¹ s⁻¹
- Kd [4]: ~4.5 nM
- Kd [5]: ~20 nM
- koff [6]: ~0.001 s⁻¹
- kon [7]: ~1e+06 M⁻¹ s⁻¹
- Kd [8]: 20 nM
- Kd [9]: 0.2 to 0.3 nM
